From PMC8093215

Target: human DNMT1 BAH1 domain (residues 728-900), Y775A (human) (UniProt P26358)
Experiment: ITC; 1 mM H4K20me peptide titrated over 0.1 mM hDNMT1 BAH1 or BAH2 domain; 25 mM Tris-HCl pH 7.5, 100 mM NaCl, 2 mM DTT; 5 °C; single-site binding mode

Chain of human DNMT1 BAH1 domain (residues 728-900), Y775A (human) (P26358 728-900 Y775A): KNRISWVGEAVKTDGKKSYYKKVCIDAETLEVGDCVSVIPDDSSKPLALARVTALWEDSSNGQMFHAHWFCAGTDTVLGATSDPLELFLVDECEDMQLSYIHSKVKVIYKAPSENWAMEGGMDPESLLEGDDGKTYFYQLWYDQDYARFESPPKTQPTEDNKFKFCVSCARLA

Substance: H4(14-25)K20me3 peptide (from UniProt P62805 15-26)
- Kd: 361 µM
- stoichiometry N: 1
